T1: N2(1–15)-Fc (human, UniProt Q04721 26-605)
T1 construct: human NOTCH2, printed as N2(1–15); no catalogue number is printed; Captured on protein A sensor tips by its Fc; also called human N2; human NOTCH2; source: bought: R and D systems, used without further purification
T1 sequence (looked up): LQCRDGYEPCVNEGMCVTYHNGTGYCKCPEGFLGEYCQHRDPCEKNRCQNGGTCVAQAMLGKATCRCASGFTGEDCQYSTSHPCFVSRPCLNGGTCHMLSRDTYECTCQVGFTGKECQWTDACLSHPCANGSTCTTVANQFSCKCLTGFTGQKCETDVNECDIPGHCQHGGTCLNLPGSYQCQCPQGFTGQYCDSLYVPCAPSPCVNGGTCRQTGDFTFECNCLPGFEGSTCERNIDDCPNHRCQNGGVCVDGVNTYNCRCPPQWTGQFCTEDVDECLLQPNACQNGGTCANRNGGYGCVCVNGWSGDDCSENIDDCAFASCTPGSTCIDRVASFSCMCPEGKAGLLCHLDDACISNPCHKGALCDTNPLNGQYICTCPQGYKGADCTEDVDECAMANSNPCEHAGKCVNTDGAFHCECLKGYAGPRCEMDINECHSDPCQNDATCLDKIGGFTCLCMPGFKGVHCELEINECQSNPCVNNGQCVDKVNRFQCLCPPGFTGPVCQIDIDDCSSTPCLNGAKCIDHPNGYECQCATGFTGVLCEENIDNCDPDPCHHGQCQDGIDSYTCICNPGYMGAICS


What was measured:
[1] = biological target: T2, biotinylated human N1 ectodomain fragment containing EGF repeats 6–15 (human, UniProt P46531 216-604, biotin on the Avi tag (BirA co-expression)); assay: BLI; BLItz instrument; biotinylated Notch1 fragment loaded on streptavidin biosensors, dipped into ligand samples of varying concentration until equilibrium; HBS-P buffer with 0.005% surfactant P20 and 5 mM CaCl2; equilibrium curves fitted with a one site specific binding model; settings: both partners purified
T2 construct: human NOTCH1, EGF repeats 6–15 (amino acids 216–604); also called hN1; N1 fragment; source: Expi293F, transiently transfected (co-transfected with BirA and POFUT1), purified from the medium (Ni-NTA, Superdex 200); not shown: Avi (biotinylation) tag, C-terminal, kept

N2(1–15)-Fc = biological target: T1, N2(1–15)-Fc; assay: BLI; BLItz instrument; N2(1–15)-Fc captured on protein A biosensors, ligand samples of varying concentration; HBS-P buffer with 0.005% surfactant P20 and 5 mM CaCl2; equilibrium curves fitted with a one site specific binding model; settings: both partners purified

Kd [1] | Kd (N2(1–15)-Fc) | Binder
1560 nM | – | mDLL1 fragment (mouse DLL1 from the N-terminus up to and including EGF5) (domain or fragment, mouse DLL1, N-terminus up to and including EGF5; also called DLL1 (from the N-terminus through EGF-repeat 5); D1N-E5; source: Expi293F, transiently transfected, purified from the medium (Ni-NTA, Superdex 200)) not shown
– | 360 nM | hD1N-E5 (human DLL1 from the N-terminus through EGF-repeat 5) (domain or fragment, UniProt O00548 18-402, looked up, human DLL1, N-terminus through EGF5; source: Expi293F, transiently transfected, purified from the medium (Ni-NTA, Superdex 200)) QVWSSGVFELKLQEFVNKKGLLGNRNCCRGGAGPPPCACRTFFRVCLKHYQASVSPEPPCTYGSAVTPVLGVDSFSLPDGGGADSAFSNPIRFPFGFTWPGTFSLIIEALHTDSPDDLATENPERLISRLATQRHLTVGEEWSQDLHSSGRTDLKYSYRFVCDEHYYGEGCSVFCRPRDDAFGHFTCGERGEKVCNPGWKGPYCTEPICLPGCDEQHGFCDKPGECKCRVGWQGRYCDECIRYPGCLHGTCQQPWQCNCQEGWGGLFCNQDLNYCTHHKPCKNGATCTNTGQGSYTCSCRPGYTGATCELGIDECDPSPCKNGGSCTDLENSYSCTCPPGFYGKICELSAMTCADGPCFNGGRCSDSPDGGYSCRCPVGYSGFNC
430 nM | – | mD4N-E5 (mouse DLL4 from the N-terminus up to and including EGF5) (domain or fragment, UniProt Q9JI71 27-401, looked up, mouse DLL4, N-terminus up to and including EGF5; also called DLL4 (from the N-terminus through EGF-repeat 5); pLexM-D4N-E5-Avi-His; source: Expi293F, transiently transfected, purified from the medium (Ni-NTA, Superdex 200)) GSGIFQLRLQEFVNQRGMLANGQSCEPGCRTFFRICLKHFQATFSEGPCTFGNVSTPVLGTNSFVVRDKNSGSGRNPLQLPFNFTWPGTFSLNIQAWHTPGDDLRPETSPGNSLISQIIIQGSLAVGKIWRTDEQNDTLTRLSYSYRVICSDNYYGESCSRLCKKRDDHFGHYECQPDGSLSCLPGWTGKYCDQPICLSGCHEQNGYCSKPDECICRPGWQGRLCNECIPHNGCRHGTCSIPWQCACDEGWGGLFCDQDLNYCTHHSPCKNGSTCSNSGPKGYTCTCLPGYTGEHCELGLSKCASNPCRNGGSCKDQENSYHCLCPPGYYGQHCEHSTLTCADSPCFNGGSCRERNQGSSYACECPPNFTGSNCE
– | 1280 nM | D4N-E5 (DLL4 from the N-terminus through EGF-repeat 5) as used in the N2 binding experiment (domain or fragment, UniProt Q9NR61 27-400, looked up, DLL4, N-terminus through EGF5; it may be the mouse fragment m2); The sentence names hD1N-E5 as human but prints D4N-E5 without a species prefix; source: Expi293F, transiently transfected, purified from the medium (Ni-NTA, Superdex 200)) SGVFQLQLQEFINERGVLASGRPCEPGCRTFFRVCLKHFQAVVSPGPCTFGTVSTPVLGTNSFAVRDDSSGGGRNPLQLPFNFTWPGTFSLIIEAWHAPGDDLRPEALPPDALISKIAIQGSLAVGQNWLLDEQTSTLTRLRYSYRVICSDNYYGDNCSRLCKKRNDHFGHYVCQPDGNLSCLPGWTGEYCQQPICLSGCHEQNGYCSKPAECLCRPGWQGRLCNECIPHNGCRHGTCSTPWQCTCDEGWGGLFCDQDLNYCTHHSPCKNGATCSNSGQRSYTCTCRPGYTGVDCELELSECDSNPCRNGGSCKDQEDGYHCLCPPGYYGLHCEHSTLSCADSPCFNGGSCRERNQGANYACECPPNFTGSNCE
